Among the data in paper PMC6312924 are co-precipitated higher (complex-glycan) β band, relative intensity normalized to WT (normalized to WT) and co-precipitated lower (intracellular) β band, relative intensity normalized to WT (normalized to WT) values, retold here.

The target of test [1] is HA-tagged Atp1a3 T705D (mouse) (UniProt Q8VCE0). Briefly: co-IP; HEK 293T cells co-transfected with HA-tagged Atp1a3 (WT, TA or TD) and YFP-β1 or YFP-β2; α3 precipitated with anti-HA beads (clone 3F10) 2 h at 4°C in IP buffer (20 mM Tris pH 8.0, 150 mM NaCl, 1% NP40, 10% glycerol); β detected with a GFP antibody; band densitometry normalised to WT.
Test [2] addresses HA-tagged Atp1a3 T705A (mouse) (UniProt Q8VCE0). The description is as above.

As to “YFP-tagged Na,K-ATPase β1 subunit (rat) (from UniProt P07340 1-304) (natural protein)”, in test [1], the co-precipitated higher (complex-glycan) β band, relative intensity normalized to WT (normalized to WT) was found to be 6.59 and the co-precipitated lower (intracellular) β band, relative intensity normalized to WT (normalized to WT) stood at 95. In test [2], this substance returned a co-precipitated higher (complex-glycan) β band, relative intensity normalized to WT (normalized to WT) of 58.3 and a co-precipitated lower (intracellular) β band, relative intensity normalized to WT (normalized to WT) of 101.

Turning to “YFP-tagged Na,K-ATPase β2 subunit (human) (from UniProt P14415 1-290) (natural protein)”, the co-precipitated higher (complex-glycan) β band, relative intensity normalized to WT (normalized to WT) in test [1] was 2.81; in test [2], 16.3. Besides, the co-precipitated lower (intracellular) β band, relative intensity normalized to WT (normalized to WT) in test [1] amounted to 80.5; in test [2], 82.7.
